Tests used:
[1] = target: S. rosetta caveolin (Salpingoeca rosetta); experiment: cryo-EM structure; single-particle cryo-EM of the complex purified in C12M detergent; C11 symmetry applied in the final refinement
[2] = target: the molecule itself; experiment: as above

| Molecule | stoichiometry N [1] | stoichiometry N [2] |
| --- | --- | --- |
| S. rosetta caveolin (natural protein) | 11 |  |
| S. purpuratus caveolin (natural protein, Strongylocentrotus purpuratus, UniProt A0A7M7T4C2 1-159, looked up, caveolin of Strongylocentrotus purpuratus (purple sea urchin), UniProt A0A7M7T4C2, entire polypeptide (residues 1-159); residues 29-152 modelled in the cryo-EM map; Cloned between NdeI and XhoI of pET20b(+) with a reverse primer without stop codon, so the His tag is probably C-terminal (surmised); also called Strongylocentrotus purpuratus caveolin; Type I-CAV; source: E. coli BL21, purified from …) MELIHPENGPSGTVQVPLIQGVDQSDTEDVYRLSPHVTTGFADTFKESNDIMGFSFMEKVNGAIYKYTHFAFYAVLNLLLAPFIAFSFGLSFAVMHFAVVWFVQPIMKLYYVWLRVFNLAYEPALRLVCDPIHRSIALILSGIKGQFKMNSSDVKTSQV |  | 11 |
